{
  "source": "patent US10258642B2",
  "about": "“Dextran sulfate for use in mobilization of cells” (TX MEDIC AB, priority 2013, dated 2019)",
  "molecules": {"B1": {"name": "G-CSF: granulocyte-colony stimulation factor (NEUPOGEN, Amgen) (protein, chains of the INN, looked up)", "chain": "MTPLGPASSLPQSFLLKCLEQVRKIQGDGAALQEKLCATYKLCHPEELVLLGHSLGIPWAPLSSCPSQALQLAGCLSQLHSGLFLYQGLLQALEGISPELGPTLDTLQLDVADFATTIWQQMEELGMAPALQPTQGAMPAFASAFQRRAGGVLVASHLQSFLEVSYRVLRHLAQP"}},
  "key": {"peripheral blood cells": {"tested_on": "peripheral blood cells", "test": "combination with G-CSF, hematological analysis", "type": "in vivo, mice", "settings": "G-CSF 2×2.5 μg/day s.c. for 2 days", "method": "G-CSF (NEUPOGEN®, Amgen, Holland) was supplied as sterile isotonic aqueous solution at 0.3 mg/mL and was diluted in normal saline to a concentration of 50 μg/mL. G-CSF was administered at a dose of 2.5 μg as a single subcutaneous injection, morning and evening Day -2 and Day -1. Dextran sulfate of different average molecular weights were used:\nStandard treatment of patients prior to apheresis is based on daily injections of G-CSF for up to one week. Clinically dextran sulfate could be used in combination with G-CSF. In a study in mice 2.5 μg/animal of G-CSF was administered twice daily (8 hrs apart) for 2 days (Broxmeyer 1999)."}, "CFU-GM": {"tested_on": "CFU-GM", "settings": "colonies with >50 cells; G-CSF 10 μg/kg daily for five days and/or dextran sulfate 15 mg/kg once on day 5 (Han 1998); cited from earlier work"}},
  "data": [
    {"molecule": "B1", "values": [
      {"measurement": "number of WBC compared to normal", "setting": "peripheral blood cells", "result": "increased the number of WBC"},
      {"measurement": "CFU-GM level", "setting": "CFU-GM", "result": "17.1±1.9", "unit": "colonies"}
    ]}
  ]
}
